Laboratory results published in the RNAGym collection of RNA variant scans (doi:10.7554/elife.80360).

B1: HDV Ribozyme (parent)
chain: GGCCGGCAUGGUCCCAGCCUCCUCGCUGGCGCCGGCUGGGCAACAUUCCGAGGGGACCGUCCCCUCGGUAAUGGCGAAUGGGACCCA

Variants of: B1
Test: self-cleavage, relative activity (ratio to wild type); higher = more cleavage; co-transcriptional

Q: With C15A U79A as the variant, how does the self-cleavage read?
A: 0.519

Q: For C15U U37G, which self-cleavage is on record?
A: 0.158

Q: For C15U G35C, which self-cleavage is on record?
A: 0.0723

Q: With C15U G35A as the variant, how does the self-cleavage read?
A: 0.475

Q: With C15U C75A as the variant, how does the self-cleavage read?
A: 0.0326

Q: Which self-cleavage does the source give for C15U C75U here?
A: 0.227

Q: Which self-cleavage does the source give for C15A G59A here?
A: 0.543

Q: For C15A G59U, which self-cleavage is on record?
A: 0.623

Q: With C15U U46G as the variant, how does the self-cleavage read?
A: 0.499

Q: For C15U U46C, which self-cleavage is on record?
A: 0.9

Q: For C15G G50C, which self-cleavage is on record?
A: 0.575

Q: For C15G G50U, which self-cleavage is on record?
A: 0.598

Q: Which self-cleavage does the source give for C15U C64G here?
A: 0.962

Q: Which self-cleavage does the source give for C15U G82A here?
A: 0.325

Q: With C15U C26U as the variant, how does the self-cleavage read?
A: 1.2

Q: Which self-cleavage does the source give for A16C C62G here?
A: 0.403

Q: Which self-cleavage does the source give for C15U C33U here?
A: 0.708

Q: For C15A G17U, which self-cleavage is on record?
A: 0.252

Q: Which self-cleavage does the source give for C15G A71G here?
A: 0.727

Q: For C15U U69C, which self-cleavage is on record?
A: 0.643

Q: For C15A G76A, which self-cleavage is on record?
A: 0.712

Q: For C15U G34A, which self-cleavage is on record?
A: 0.173

Q: Which self-cleavage does the source give for C15G G17U here?
A: 0.243

Q: With C15U U47C as the variant, how does the self-cleavage read?
A: 0.779

Q: For C15U U47G, which self-cleavage is on record?
A: 0.89

Q: Which self-cleavage does the source give for C15G U72A here?
A: 0.0875

Q: For C15G A87C, which self-cleavage is on record?
A: 0.799

Q: For C15G C48G, which self-cleavage is on record?
A: 0.739

Q: Which self-cleavage does the source give for C15A G28U here?
A: 0.0615

Q: With C15G C30G as the variant, how does the self-cleavage read?
A: 0.317

Q: For C15U A56G, which self-cleavage is on record?
A: 1.35

Q: For A16C C66G, which self-cleavage is on record?
A: 0.554

Q: Which self-cleavage does the source give for C15G A77U here?
A: 0.158

Q: Which self-cleavage does the source give for C15G A77G here?
A: 0.332

Q: For C15G C57U, which self-cleavage is on record?
A: 0.554

Q: With C15G C57G as the variant, how does the self-cleavage read?
A: 0.692

Q: With A16C C57U as the variant, how does the self-cleavage read?
A: 0.719

Q: For A16C C64G, which self-cleavage is on record?
A: 0.554

Q: For A16C C64A, which self-cleavage is on record?
A: 0.895

Q: Which self-cleavage does the source give for C15A G73A here?
A: 0.283

Q: With C15G G28C as the variant, how does the self-cleavage read?
A: 0.107

Q: With C15G C66U as the variant, how does the self-cleavage read?
A: 0.573

Q: Which self-cleavage does the source give for C15U U65A here?
A: 0.831

Q: With C15U C61A as the variant, how does the self-cleavage read?
A: 1.27

Q: Which self-cleavage does the source give for C15U C61U here?
A: 0.882

Q: For A16C C58G, which self-cleavage is on record?
A: 0.532

Q: For A16C A70G, which self-cleavage is on record?
A: 0.923

Q: With A16C C63A as the variant, how does the self-cleavage read?
A: 0.942

Q: For C15U C63U, which self-cleavage is on record?
A: 0.914

Q: For C15U A71U, which self-cleavage is on record?
A: 0.598

Q: Which self-cleavage does the source give for C15A U37G here?
A: 0.0755

Q: Which self-cleavage does the source give for C15U C41G here?
A: 0.475

Q: With C15G A70C as the variant, how does the self-cleavage read?
A: 0.776

Q: Which self-cleavage does the source give for C15G G74A here?
A: 0.13

Q: For C15U G39U, which self-cleavage is on record?
A: 0.322

Q: With C15G G25A as the variant, how does the self-cleavage read?
A: 0.161

Q: With A16C A42U as the variant, how does the self-cleavage read?
A: 0.208

Q: With C15G A42C as the variant, how does the self-cleavage read?
A: 0.0755

Q: Which self-cleavage does the source give for C15G A42G here?
A: 0.166

Q: Which self-cleavage does the source give for C15G A42U here?
A: 0.0504

Q: With C15U G50A as the variant, how does the self-cleavage read?
A: 1.08

Q: Which self-cleavage does the source give for C15U G68U here?
A: 0.88

Q: Which self-cleavage does the source give for C15U G68A here?
A: 0.759

Q: With A16C A77G as the variant, how does the self-cleavage read?
A: 0.831

Q: For C15U U27C, which self-cleavage is on record?
A: 0.712

Q: Which self-cleavage does the source give for C15U C32G here?
A: 0.0489

Q: For C15G C86U, which self-cleavage is on record?
A: 0.791

Q: For C15U C66A, which self-cleavage is on record?
A: 1.11

Q: For C15G C61A, which self-cleavage is on record?
A: 0.516

Q: For C15U C49G, which self-cleavage is on record?
A: 0.485

Q: Which self-cleavage does the source give for C15G C75U here?
A: 0.237

Q: With C15G A45U as the variant, how does the self-cleavage read?
A: 0.594

Q: Which self-cleavage does the source give for C15A G34C here?
A: 0.256

Q: Which self-cleavage does the source give for C15A G34U here?
A: 0

Q: For C15U A77U, which self-cleavage is on record?
A: 0.246

Q: With C15G G38U as the variant, how does the self-cleavage read?
A: 0

Q: For C15A G53A, which self-cleavage is on record?
A: 0.866

Q: Which self-cleavage does the source give for A16C A43C here?
A: 0.415

Q: With C15A G54C as the variant, how does the self-cleavage read?
A: 0.806

Q: With C15G A43U as the variant, how does the self-cleavage read?
A: 0.123

Q: Which self-cleavage does the source give for C15U G54U here?
A: 0.901

Q: For C15A G31A, which self-cleavage is on record?
A: 0.16

Q: With C15A G31C as the variant, how does the self-cleavage read?
A: 0

Q: Which self-cleavage does the source give for C15A G29U here?
A: 0

Q: Which self-cleavage does the source give for C15A G29C here?
A: 0.0692

Q: With C15A G35U as the variant, how does the self-cleavage read?
A: 0.188

Q: With C15G G52C as the variant, how does the self-cleavage read?
A: 0.95

Q: For C15U C62G, which self-cleavage is on record?
A: 0.851

Q: Which self-cleavage does the source give for C15A G25U here?
A: 0.0791

Q: With C15U C36U as the variant, how does the self-cleavage read?
A: 0.886

Q: For C15G C49U, which self-cleavage is on record?
A: 0.554

Q: With C15G G73U as the variant, how does the self-cleavage read?
A: 0.147

Q: With C15G G73A as the variant, how does the self-cleavage read?
A: 0.162

Q: Which self-cleavage does the source give for C15U U72A here?
A: 0.485

Q: For C15A G67A, which self-cleavage is on record?
A: 0.499

Q: Which self-cleavage does the source give for A16C C22A here?
A: 0.0594

Q: With A16C C22U as the variant, how does the self-cleavage read?
A: 0.369

Q: With C15G G34C as the variant, how does the self-cleavage read?
A: 0

Q: Which self-cleavage does the source give for C15A U65G here?
A: 0.653

Q: With C15U C57G as the variant, how does the self-cleavage read?
A: 1.06

Q: With C15G G55A as the variant, how does the self-cleavage read?
A: 0.522

Q: With A16C A51U as the variant, how does the self-cleavage read?
A: 0.935

Q: With C15U A83C as the variant, how does the self-cleavage read?
A: 0.65

Q: Which self-cleavage does the source give for C15U G81U here?
A: 0.554

Q: With C15U G81A as the variant, how does the self-cleavage read?
A: 0.554

Q: For A16C C48U, which self-cleavage is on record?
A: 0.677

Q: With A16C A78G as the variant, how does the self-cleavage read?
A: 0.361

Q: With C15U G67C as the variant, how does the self-cleavage read?
A: 0.883

Q: Which self-cleavage does the source give for C15U G67A here?
A: 0.808

Q: With C15U G67U as the variant, how does the self-cleavage read?
A: 0.972

Q: For A16C C32U, which self-cleavage is on record?
A: 0.332

Q: With A16C C32G as the variant, how does the self-cleavage read?
A: 0.293

Q: With C15A G55A as the variant, how does the self-cleavage read?
A: 0.796

Q: With C15G C58G as the variant, how does the self-cleavage read?
A: 0.612

Q: Which self-cleavage does the source give for C15U G59U here?
A: 0.895

Q: With C15U A43U as the variant, how does the self-cleavage read?
A: 0.284

Q: Which self-cleavage does the source give for C15G G40C here?
A: 0.271

Q: With C15A G81A as the variant, how does the self-cleavage read?
A: 0.57

Q: Which self-cleavage does the source give for C15A G68C here?
A: 0.458

Q: With C15A G68A as the variant, how does the self-cleavage read?
A: 0.511

Q: With C15A G82U as the variant, how does the self-cleavage read?
A: 0.232

Q: Which self-cleavage does the source give for C15G G76C here?
A: 0.467

Q: For C15U G53C, which self-cleavage is on record?
A: 0.956

Q: With C15U G80C as the variant, how does the self-cleavage read?
A: 0.177

Q: Which self-cleavage does the source give for A16C C18G here?
A: 0

Q: With C15U G25A as the variant, how does the self-cleavage read?
A: 0.0898

Q: For C15G G31A, which self-cleavage is on record?
A: 0.138

Q: Which self-cleavage does the source give for C15G A51U here?
A: 0.475

Q: For C15A G80C, which self-cleavage is on record?
A: 0.222

Q: With C15A G80U as the variant, how does the self-cleavage read?
A: 0.899

Q: With C15U A51U as the variant, how does the self-cleavage read?
A: 1.08

Q: For C15G U27G, which self-cleavage is on record?
A: 0.104

Q: Which self-cleavage does the source give for C15G U27C here?
A: 0.277

Q: Which self-cleavage does the source give for C15A U20C here?
A: 0.135

Q: Which self-cleavage does the source give for C15G G59U here?
A: 0.375

Q: For C15G G29C, which self-cleavage is on record?
A: 0

Q: With C15G G29A as the variant, how does the self-cleavage read?
A: 0.0339

Q: For C15U C84U, which self-cleavage is on record?
A: 0.962

Q: With C15U C84G as the variant, how does the self-cleavage read?
A: 0.635

Q: For C15U C18A, which self-cleavage is on record?
A: 0.0639

Q: Which self-cleavage does the source give for C15G A83U here?
A: 0.0791

Q: For C15G A83C, which self-cleavage is on record?
A: 0.249

Q: Which self-cleavage does the source give for C15G U79C here?
A: 0.342

Q: Which self-cleavage does the source give for C15G U79G here?
A: 0.391

Q: Which self-cleavage does the source give for C15G G35U here?
A: 0.0396

Q: With C15A U27C as the variant, how does the self-cleavage read?
A: 0.277

Q: With C15A U27A as the variant, how does the self-cleavage read?
A: 0.594

Q: For C15G G54A, which self-cleavage is on record?
A: 0.534

Q: For C15U A70U, which self-cleavage is on record?
A: 0.831

Q: For C15U C58U, which self-cleavage is on record?
A: 0.811

Q: For C15U C58G, which self-cleavage is on record?
A: 1.36

Q: With A16C A71U as the variant, how does the self-cleavage read?
A: 0.623

Q: Which self-cleavage does the source give for A16C A71G here?
A: 0.7

Q: Which self-cleavage does the source give for C15G C64U here?
A: 1.02

Q: With C15G C44G as the variant, how does the self-cleavage read?
A: 0.434

Q: Which self-cleavage does the source give for A16C C30A here?
A: 0.208

Q: Which self-cleavage does the source give for A16C C30G here?
A: 0.128

Q: For C15G A16U, which self-cleavage is on record?
A: 0.795

Q: For C15G G82A, which self-cleavage is on record?
A: 0.0978

Q: For C15G, which self-cleavage is on record?
A: 0.663

Q: For C15U, which self-cleavage is on record?
A: 0.965

Q: Which self-cleavage does the source give for C15U A78G here?
A: 0.332

Q: Which self-cleavage does the source give for C15G C24U here?
A: 0.196

Q: For C15U A87C, which self-cleavage is on record?
A: 1.03

Q: For C15G C36U, which self-cleavage is on record?
A: 0.264

Q: For C15U C22G, which self-cleavage is on record?
A: 0.147

Q: For C15G A78G, which self-cleavage is on record?
A: 0
